Values quoted from earlier work, collected in patent publication US20230295339A1, “METHOD FOR TREATING A GD2-POSITIVE CANCER” (EUSA PHARMA (UK) LIMITED, priority 2020, published 2023).

What was measured:
[1] = for Kd: read-out: apparent kD for binding to GD2

Row | Molecule | tolerability of cumulative dose in maintenance treatment (10 days, 10 mg/m^2/day, 35-day intervals, 5 cycles, cumulative 500 mg/m^2 in 175 days) | toxicity in subsequent cycles (in vivo) | binding preference for GD2 versus the related glycan structure GQ2 [1] | binding preference for GD2 versus the related glycan structure GT2 [1] | Kd [1] [nM]
1 | dinutuximab beta: chimeric (murine/human) anti-GD2 IgG1 monoclonal antibody produced in CHO cells (antibody, chains of the INN, looked up, V domains shown) VH: EVQLLQSGPELEKPGASVMISCKASGSSFTGYNMNWVRQNIGKSLEWIGAIDPYYGGTSYNQKFKGRATLTVDKSSSTAYMHLKSLTSEDSAVYYCVSGMEYWGQGTSVTVSS VL: EIVMTQSPATLSVSPGERATLSCRSSQSLVHRNGNTYLHWYLQKPGQSPKLLIHKVSNRFSGVPDRFSGSGSGTDFTLKISRVEAEDLGVYFCSQSTHVPPLTFGAGTKLELK | feasible and well-tolerated | decrease of dinutuximab beta toxicity in subsequent cycles |  |  | 
2 | humanized 3F8: murine anti-GD2 antibody 3F8 humanized as naxitamab (antibody, chains of the INN, looked up, V domains shown) VH: QVQLVESGPGVVQPGRSLRISCAVSGFSVTNYGVHWVRQPPGKGLEWLGVIWAGGITNYNSAFMSRLTISKDNSKNTVYLQMNSLRAEDTAMYYCASRGGHYGYALDYWGQGTLVTVSS VL: EIVMTQTPATLSVSAGERVTITCKASQSVSNDVTWYQQKPGQAPRLLIYSASNRYSGVPARFSGSGYGTEFTFTISSVQSEDFAVYFCQQDYSSFGQGTKLEIK |  |  | 200 | 1500 | 7.7
3 | Unituxin: chimeric anti-GD2 antibody ch14.18 produced in SP2/0 murine hybridoma cells (antibody, chains of the INN, looked up, V domains shown) VH: EVQLLQSGPELEKPGASVMISCKASGSSFTGYNMNWVRQNIGKSLEWIGAIDPYYGGTSYNQKFKGRATLTVDKSSSTAYMHLKSLTSEDSAVYYCVSGMEYWGQGTSVTVSS VL: EIVMTQSPATLSVSPGERATLSCRSSQSLVHRNGNTYLHWYLQKPGQSPKLLIHKVSNRFSGVPDRFSGSGSGTDFTLKISRVEAEDLGVYFCSQSTHVPPLTFGAGTKLELK |  |  | 1000 | > 5000 | 60
